The MegaScale stability set (Tsuboyama et al. 2023)

B1: HEEH_KT_rd6_3546 (parent)
chain: SEEDKEREHWERLNRDFELRVLDTTFIAHHAEEVIKLLRWLEK

Variants of: B1
Assay: folding stability dG (cDNA display proteolysis); higher = more stable
Conditions: PBS, room temperature

Folding stability dG [kcal/mol] of substitutions, site by site:
R39: S 1.01; Y 1.54; D 0.762; P 0.359; W 1.55; V 1.33; T 1.37
A31: L 1.94; N 0.698; S 0.872; V 2.1; R 1.07; P 0.618; T 1.33; W 2.28; K 1.09; E 0.663; I 2.19; C 2.24; F 1.96; Y 1.61; H 0.66; G 0.934; D 0.6; M 1.79; Q 0.833
L41: N -0.295; C 1.83; T 0.442; P 0.119; K 0.491; F 1.38; Y 0.761; I 1.14; R 0.586; V 1.21; G 0.088; S -0.005; A 0.58; D -0.253; M 1.22; W 1.22; E -0.48; Q 0.519; H 0.356
L37: W 1.63; M 1.09; N 0.031; R 0.273; S 0.285; H 0.36; F 1.62; E -0.07; G 0.136; K 0.138; V 0.922; T 0.61; I 1.23; P -0.172; Y 1.23; A 0.846; D -0.437; Q 0.133
V34: N -0.04; C 1.54; M 1.2; S 0.133; L 1.57; A 1.06; I 1.75; D 0.006; E 0.228; G 0.3; Q -0.202; F 1.61; T 0.62; W 1.47; Y 1.06; H 0.255; K 0.1; R 0.162
E33: N 1.45; P 0.926; F 2.31; V 2.06; Y 2.16; H 1.41; L 2.05; W 2.45; I 2.31; C 2.69; M 2.06; K 1.62; T 1.47; Q 1.46; D 1.34; G 1.47; A 1.74; R 1.46; S 1.44
H30: M 2.34; R 1.07; D 0.85; N 1.09; E 0.893; C 1.6; Y 2.05; A 2.04; K 1.13; P 0.902; S 1.23; L 2.38; I 2.09; G 1.44; Q 1.06; V 2.38; F 2.3; T 1.72; W 2.69
A28: Q 0.99; L 1.99; S 1.15; H 0.802; Y 1.64; P 0.699; R 1.48; W 2.14; G 1.01; N 0.915; K 1.29; E 0.888; D 0.777; F 1.94; T 1.2; M 1.84; V 1.51; I 1.82; C 2.23
H29: I 2.5; R 1.68; G 1.17; Y 1.94; E 1.45; C 1.85; M 1.98; A 1.49; L 1.59; K 1.77; P 0.857; V 1.61; F 2.21; Q 1.23; S 1.59; W 2.01; T 1.35; D 1.05; N 1.3
I27: W 1.88; T 0.562; P 0.57; N 0.776; R 0.466; M 1.12; S 0.654; Q 0.497; V 0.996; Y 1.25
